Results: paper doi:10.1101/2025.11.22.689886 (bioRxiv, 2025)

Biological target: the molecule itself
Test: SEC

B1: transdermal peptide-recombinant type III collagen fusion protein (other, human)
chain: FEGPASRPGFPGMKGHRGFDGRNGEKGETGAPGLKGENGLPGENGAPGPMGPRGAPGERGRPGLPGAAGARGNDGARGSDGQPGPPGPPGTAGFPGSPGAKGEVGPAGSPGSNGAPGQRGEPGPQGHAGAQGPPGPPGINGSPGGKGEMGPAGIPGAPGLMGARGPPGPAGANGAPGLRGGAGEPGKNGAKGEPGPRGERGEAGIPGVPGAKGEDGKDGSPGEPGANG
stoichiometry N: 3
